Measurements as given in article doi:10.1101/2025.09.09.675085 (bioRxiv, 2025).
Like-named read-outs stand apart in the source and are kept apart here.

B1: Selenomethionine-labelled tagless TipA (residues 26-572) (natural protein, Bdellovibrio bacteriovorus HD100, UniProt Q6MK73 26-572, looked up)
chain: ITDANPQIANKHLMPNAVRVQITQRGMKYFDNRLSDILGNLGVKLDEGYFPAMSYTAEKPINMDDFMDANPEMVKMYQQVRGLLTQWLVGFSMNDHQPTIEIGESGYVAKFSRFGLVTDELLMEALGKRDGAILAIELEVKKLTISTQSVVAWDTQNEFLGKAGFEDVTLQAADEEMPLKIRLPFYLRMNAMGGLEFEALEISNNFDSIPLGLKYGRLIVPQFAVEVNGKKFYVNNAELEKLFQAQAPMILEKVRGSIGDFARTQLPAMLNQKAKEFLGGSLEQVQDMAAPGQEPTDTRPAFKWGLQLQNLNLKKSLNVDLTTYVEDPVNSRSAPVKSHASRGAPTFNAVAQENYDIGLSVDRALINRVLQLAFERRNFEQIKQSDGSVLKLVATPLIDYVKTPAGVAVKPTETFVKLRVSVEIQPGSMFLKKTIVVDFDIIAKLRQLSDKTGMQMLLHSIDTDSLYLDDKYISVAGKLFKGKVREGVKDELKKRSANWATTEESLPGGLPLPPQILGIKLDINRVMMDPNGHLIMYLDYAKTGANK
modifications: selenomethionine-labelled
B2: TipA-His (TULIP invasion protein A, Bd2538, residues 26-572 with C-terminal octa-His tag) (natural protein, Bdellovibrio bacteriovorus HD100, UniProt Q6MK73 26-572, looked up)
chain: B1 chain

What was measured:
crystal structure [1] = target: the molecule itself; assay: crystal structure
crystal structure [2] = target: the molecule itself; assay: crystal structure; remark: listed apart in the source

Protein	stoichiometry N (crystal structure [1])	stoichiometry N (crystal structure [2])
B1	2	–
B2	–	2
